Measurements from patent US20260042834A1, “ANTI-CORTICOTROPIN-RELEASING HORMONE ANTIBODIES AND POLYCYSTIC OVARY SYNDROME” (HBM ALPHA THERAPEUTICS, INC., priority 2022, published 2026).

Legend:
[1] = target: biotinylated CRH (human and mouse); test: Octet in-tandem, row = 1st mAb; competitor (2nd mAb) PR302309-8
[2] = target: biotinylated CRH (human and mouse); test: competitive ELISA, coated 1st mAb; competitor PR006148
[3] = target: biotinylated CRH (human and mouse); test: Octet in-tandem, row = 1st mAb; competitor (2nd mAb) PR302334
[4] = target: biotinylated CRH (human and mouse); test: competitive ELISA, coated 1st mAb; competitor PR302050
[5] = target: biotinylated CRH (human and mouse); test: competitive ELISA, coated 1st mAb; competitor PR302055
[6] = target: biotinylated CRH (human and mouse); test: Octet in-tandem, row = 1st mAb; competitor (2nd mAb) PR006669
[7] = target: biotinylated CRH (human and mouse); test: Octet in-tandem, row = 1st mAb; competitor (2nd mAb) PR005660
[8] = target: biotinylated CRH (human and mouse); test: competitive ELISA, coated 1st mAb; competitor PR302069
[9] = target: biotinylated CRH (human and mouse); test: competitive ELISA, coated 1st mAb; competitor PR004290
[10] = target: biotinylated CRH (human and mouse); test: Octet in-tandem, row = 1st mAb; competitor (2nd mAb) PR301777
[11] = target: biotinylated CRH (human and mouse); test: competitive ELISA, coated 1st mAb; competitor PR302064
[12] = target: biotinylated CRH (human and mouse); test: competitive ELISA, coated 1st mAb; competitor PR301777
[13] = target: biotinylated CRH (human and mouse); test: competitive ELISA, coated 1st mAb; competitor hIgG1
[14] = target: biotinylated CRH (human and mouse); test: competitive ELISA, coated 1st mAb; competitor PR006152
[15] = target: biotinylated CRH (human and mouse); test: Octet in-tandem, row = 1st mAb; competitor (2nd mAb) PR302341-34
[16] = target: biotinylated CRH (human and mouse); test: competitive ELISA, coated 1st mAb; competitor PR005660
[17] = target: biotinylated CRH (human and mouse); test: Octet in-tandem, row = 1st mAb; competitor (2nd mAb) PR303394

Chain of biotinylated CRH (human and mouse) (peptide, as listed by the source): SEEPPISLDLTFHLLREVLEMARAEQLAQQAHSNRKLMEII

% Inhibition [1]: 15% | % Inhibition [2]: 0% | % Inhibition [3]: 8% | % Inhibition [4]: 0% | % Inhibition [5]: 0% | % Inhibition [6]: 9% | % Inhibition [7]: 12% | % Inhibition [8]: 0% | % Inhibition [9]: 0% | % Inhibition [10]: 9% | % Inhibition [11]: 0% | % Inhibition [12]: 0% | % Inhibition [13]: 0% | % Inhibition [14]: 0% | % Inhibition [15]: 12% | % Inhibition [16]: 0% | % Inhibition [17]: 10%
Substance: hIgG1 (antibody)
